# Values quoted from earlier work in article PMC6824834.
# Target: Glu165 (UniProt position 165, VVVAYEPVWAI)
# Conditions: substrate-bound, closed (desolvated) active site
substance,measurement,value
Triosephosphate isomerase (TIM) (Not stated for the quoted values; residue numbering is that of Saccharomyces cerevisiae TIM (yTIM)),pKa,>6
